In PMC10495444:

Experiments:
[1] = molecular target: mXkr4ΔC Q332E (aXkr4), constitutively active mutant, fused with monomeric EGFP (mouse); test: SEC + native gel or EMSA; whole lysate of transfected HEK293T cells in LMNG/GDN 1:1 loaded on Superdex Increase 200 10/300 GL (10 mM HEPES-NaOH pH 7.5, 150 mM NaCl, 0.01% LMNG/GDN, 10% glycerol, 1 mM CaCl2 or 0.5 mM EGTA); dimer fraction collected by EGFP fluorescence; then BN-PAGE with anti-V5 blot after 1 h at 4, 16, 25 or 37 °C
[2] = molecular target: mouse Xkr4 C-terminal cleaved form (mXkr4ΔC) fused with monomeric EGFP (mouse); test: as above

| stoichiometry N [1] | stoichiometry N [2] | Substance |
| --- | --- | --- |
| 2 |  | mXkr4ΔC Q332E (aXkr4), constitutively active mutant, fused with monomeric EGFP (domain or fragment) |
|  | 2 | mouse Xkr4 C-terminal cleaved form (mXkr4ΔC) fused with monomeric EGFP (domain or fragment) |
